In this data set the test system is MS2 coat protein. Nature of the data set: apparent KD of MS2 coat protein; designed switch direction (-1 OFF switch, 1 ON switch): 1; higher = weaker reporter binding. The method in brief:
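For each design, the apparent KD is the median over clusters of curves fitted to normalised cluster fluorescence. Clusters held RNA switches with common flanks, transcribed on Illumina chips by stalled E. coli RNA polymerase. These were titrated with SNAP-549-labelled MS2 coat protein, doubling from 0.7 or 1.5 nM to 3 µM, without input, with 200 uM small-molecule ligand, or with an oligonucleotide input.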

The mark [1] stands for this setting: input ligand: microRNA oligo, concentration not stated.
Setting [2] is: Eterna round: R95, input ligand: FMN 200 uM.
Where [3] appears, read: Eterna round: R95, input ligand: microRNA oligo, concentration not stated.
The mark [4] stands for this setting: Eterna round: R95, input ligand: none.

Take “UGUUGUAUUACAGGAUAUCUAGUAUUUGUAUUUAGAGAAGGGUAUUCACAUGAGGAUCACCCAUGUAUAUACGAGGAAGUUGUG [JMF's solution 42] (Eterna round: R96, puzzle: Same State NG 1)”: the “apparent KD of MS2 coat protein” value (input ligand: FMN 200 uM) came to 53.7 nM, the “apparent KD of MS2 coat protein” value under setting [1] amounted to 35.4 nM and the “apparent KD of MS2 coat protein” value (input ligand: none) is 48.3 nM.
“UGUUGUAUUACAGGAUAUCUAUGUUUUUUAUUUAGAGAAGGGUAUUCACAUGAGGAUCACCCAUGUAUAUACGAGGAAGUUGUG [JMF's solution 57] (Eterna round: R96, puzzle: Same State NG 1)”: the “apparent KD of MS2 coat protein” value under setting [1] stood at 40.4 nM.
Same read-out and setting: then “UGUUGUAUUACAGGAUAUCUAUUAGCUUUAUUUAGAGAAGGGUAUUCACAUGAGGAUCACCCAUGUAUAUACGAGGAAGUUGUG [JMF's solution 88] (Eterna round: R96, puzzle: Same State NG 1)”, with 33.6 nM; and “UGUUGUAUUACAGGAUAUCUAUUAUUUUUAUGUAGAGAAGGGUAUUCACAUGAGGAUCACCCAUGUAUAUACGAGGAAGUUGUG [JMF's solution 29] (Eterna round: R96, puzzle: Same State NG 1)”, with 32.9 nM.
Regarding “UGUUGUUAAUUAGGAUAUGGUCACAUGAGGAUCACCCAUGUAAUGUCGAUGCUAUGUGGACACGAUCAGAAGGAAUGGCUAACA [SameState NG2 #93] (Eterna round: R96, puzzle: Same State NG 2)”, the “apparent KD of MS2 coat protein” value was determined as 21.3 nM (input ligand: FMN 200 uM), 69.7 nM under setting [1] and 102 nM (input ligand: none).
For “UUAAAACAUGAGGAUCACCCAUGUAAUAAUAUGGGAGGAUAUCAGAAUGUAUGUAUGUAAUGAGAAGGCCUAAAUU [Mat - Same State 1 - Mod of Eli - D76] (puzzle: Same State 1)”, the “apparent KD of MS2 coat protein” value is, setting by setting: under setting [2], 63.6 nM; under setting [3], 519 nM; under setting [4], 1280 nM.
In the same order, the values of “UUAAAACAUGAGGAUCACCCAUGUAAUAAUAUGGGAGGAUAUCAGAUUUAAUUUAAUUUAUGAGAAGGCCUAAAUU [Mat - Same State 1 - Mod of Eli - D61] (puzzle: Same State 1)” are 58.7 nM, 163 nM and 512 nM.
Regarding “UUAACAUGAGGAUCACCCAUGUAUAGGGAGUUAACAAUUGGACAGGAUAUUGAAGAUGUAGAUAGCAAGAAGGGUCGGUAGUCU [JR_SSNG3_Sub001] (Eterna round: R96, puzzle: Same State NG 3)”, under setting [1], the “apparent KD of MS2 coat protein” value worked out at 30 nM.
Consider “UUAACAUGAGGAUCACCCAUGUAUGCGUAGCUUGCAUUUUGACAGGAUAUUGAAUAUCUAUAUAGCAAGAAGGGUCGUUAGUCU [JR_SSNG3_Sub008] (Eterna round: R96, puzzle: Same State NG 3)”, for which the “apparent KD of MS2 coat protein” value by setting is: (input ligand: FMN 200 uM) 91.8 nM; under setting [1], 53.3 nM; (input ligand: none) 94.9 nM.
As for “UUAAGCAACGGGCAGGAUAUGUAUUAAUAUACAUGAGGAUCACCCAUGUGCAGGUGUAACACCUGACAGAAGGGCCAAUCGCUGC [Soteed - 10] (puzzle: Same State 2)”, the “apparent KD of MS2 coat protein” value under setting [2] amounted to 82.1 nM, the “apparent KD of MS2 coat protein” value under setting [3] was determined as 509 nM and the “apparent KD of MS2 coat protein” value under setting [4] came to 515 nM.
“UUAAGCCACGGGCAGGAUAUGUAUUAAAAUACAUGAGGAUCACCCAUGUGCAGGUGUAACACCUGGCAGAAGGGCCAAUCGCGGC [Soondi - 4] (puzzle: Same State 2)”: the “apparent KD of MS2 coat protein” value came out at 29.2 nM under setting [2], 149 nM under setting [3] and 171 nM under setting [4].
Take “UUAAUAAUGAUAGGAUAUACAUGAGGAAUUCUCGUAGAAGGAUCAUGACAUGAGGAUCACCCAUGUAACGCUCCGUAGAGCGUA [Mat - Same State NG 1 - JL mod - D36] (Eterna round: R96, puzzle: Same State NG 1)”: the “apparent KD of MS2 coat protein” value runs as follows: (input ligand: FMN 200 uM) 413 nM; under setting [1], 321 nM; (input ligand: none) 447 nM.
In the same order, the values of “UUACUCAUGUAAGGAUAUGCAGCCGAAACGGCUGCAGAAGGUACUAUAAUACAUGAGGAUCACCCAUGUCUCUAUUAUUUAGUU [Mat - Same State NG 1 - JL mod - D94] (Eterna round: R96, puzzle: Same State NG 1)” are 73.4 nM, 38.2 nM and 58 nM.
In the same order, the values of “UUACUCAUGUAAGGAUAUGCAGCCGUUUCGGCUGCAGAAGGUACUAUAAUACAUGAGGAUCACCCAUGUCUUUUUAAUUUUUAC [JL SSNG1 1.28] (Eterna round: R96, puzzle: Same State NG 1)” are 87.5 nM, 24.4 nM and 54.2 nM.
In the case of “UUAUUAAUUACAUGAGGAUCACCCAUGUUAAAUAGUCAGAGACAGGAUAUAGAAGUCUCGUUUUACUAGAAGGGUCAUUAUAUG [JR_SSNG3_Sub013] (Eterna round: R96, puzzle: Same State NG 3)”, the “apparent KD of MS2 coat protein” value (input ligand: FMN 200 uM) worked out at 40.7 nM, the “apparent KD of MS2 coat protein” value under setting [1] came to 27.2 nM and the “apparent KD of MS2 coat protein” value (input ligand: none) was 35.8 nM.
As to “UUAUUAAUUACAUGAGGAUCACCCAUGUUUUUUUGUCAGAGACAGGAUAUAGAAGUCUCGUUUUACUAGAAGGGUCAUUAUAUG [JR_SSNG3_Sub014] (Eterna round: R96, puzzle: Same State NG 3)”, the “apparent KD of MS2 coat protein” value (input ligand: FMN 200 uM) was found to be 25.6 nM, the “apparent KD of MS2 coat protein” value under setting [1] came to 19 nM and the “apparent KD of MS2 coat protein” value (input ligand: none) was 29.7 nM.
For “UUCAAUGGGAUAGGAUAUCCUGCGGCGAGGCGUGGAGAAGGGUCAAGUACAUGAGGAUCACCCAUGUUUCGGAAAUAUUCCGAG [Eternabot solution 29] (Eterna round: R96, puzzle: Same State NG 1)”, the “apparent KD of MS2 coat protein” value is 121 nM (input ligand: FMN 200 uM), 41.5 nM under setting [1] and 125 nM (input ligand: none).
In the same order, the values of “UUCCCAUCGGGAGGAUAUGGAACCUUAUUGGUUCUAGAAGGUCCAACAUGAGGAUCACCCAUGUGGGAGUGGUCUAAUGACCUC [SS NG10LRO03] (Eterna round: R96, puzzle: Same State NG 1)” are 264 nM, 288 nM and 333 nM.
Turning to “UUGAAGAAUUAAGGAUAUCGAGUCAAGAUGUAAAACAUGAGGAUCACCCAUGUGGGUUGCGGUAUCGAGAAGGUAAAUUACAAG [Mat - Same State NG 2 - JL mod - D52] (Eterna round: R96, puzzle: Same State NG 2)”, the “apparent KD of MS2 coat protein” value by setting is: (input ligand: FMN 200 uM) 24.1 nM; under setting [1], 16.9 nM; (input ligand: none) 35.4 nM.
“UUGAAGAAUUAAGGAUAUUGAAUACAUAUGUUAAACAUGAGGAUCACCCAUGUGGGUUGCGGUAUCGAGAAGGUAAAUUACUAG [Mat - same State NG 2 - JL mod - D80] (Eterna round: R96, puzzle: Same State NG 2)”: the “apparent KD of MS2 coat protein” value under setting [1] worked out at 60.1 nM.
Take “UUGAUGAACUGAGGAUAUCGAGUCGUCUGUUUUUACAUGAGGAUCACCCAUGUGGGUUGUGGUAUCGAGAAGGCAGAUUACUUA [JR_SSNG2_Sub031] (Eterna round: R96, puzzle: Same State NG 2)”: the “apparent KD of MS2 coat protein” value by setting is: (input ligand: FMN 200 uM) 1670 nM; under setting [1], 974 nM; (input ligand: none) 2150 nM.
Consider “UUGCAGUCAGGUGAGGAUAUCAUGAAUUAAACAUGAGGAUCACCCAUGUGCUGCCUUGCAGCAUAUGAGAAGGCACCUGGCUGCU [JL-ss2-3.01 Brourd Mod] (puzzle: Same State 2)”, for which the “apparent KD of MS2 coat protein” value came to 65.2 nM under setting [2], 185 nM under setting [3] and 640 nM under setting [4].
Consider “UUGCAGUGCGGGUAGGAUAUGUAGGGUGGUACAUGAGGAUCACCCAUGUAUCCACCCUUCGACCGGCAGAAGGGCCUGUCACCGC [Lexeis] (Eterna round: R96, puzzle: Same State 2)”, for which the “apparent KD of MS2 coat protein” value amounted to 23.1 nM (input ligand: FMN 200 uM), 11.2 nM under setting [1] and 17.4 nM (input ligand: none).
As to “UUGCUCGUGUGAGGAUAUGCAGCCGUUUCGGCUGCAGAAGGUACUAUAAUACAUGAGGAUCACCCAUGUCUCUAUUGUUUAGUG [salish99_SSNG1_r04_927] (Eterna round: R96, puzzle: Same State NG 1)”, the “apparent KD of MS2 coat protein” value by setting is: (input ligand: FMN 200 uM) 25.7 nM; under setting [1], 19.6 nM; (input ligand: none) 26.7 nM.
Consider “UUGUUUAGAAAUUAACAUGAGGAUCACCCAUGUAUUGGAUCAGAGGAUAUGCAUGUUUGAUUGUAGCAGAAGGCUGAUUGUUGA [JR_SSNG3_Sub029] (Eterna round: R96, puzzle: Same State NG 3)”, for which the “apparent KD of MS2 coat protein” value under setting [1] was determined as 37.3 nM.
In the case of “UUUAGAUCGCGAGGAUAUCGCGAGGAUCACCCGUGAGAAGGCGCAGAGCCGAGGAUCACCCGGCUGAUCCUGAGGAGGAGGUCU (Eterna round: R96, puzzle: Same State NG 1)”, the “apparent KD of MS2 coat protein” value runs as follows: (input ligand: FMN 200 uM) 106 nM; under setting [1], 184 nM; (input ligand: none) 269 nM.
For the sequence “UUUGCAUGACGAGGAUAUCAUUUAUUUCAUGUUUGAGAAGGCGUUUUUUUUAUUACCUUACAUGAGGAUCACCCAUGUGUCUGU [JR_SSNG1_Sub044] (Eterna round: R96, puzzle: Same State NG 1)”, the “apparent KD of MS2 coat protein” value by setting is: (input ligand: FMN 200 uM) 32.2 nM; under setting [1], 39.6 nM; (input ligand: none) 48.5 nM.
For “UUUGGGUGGCUGGAGGAUAUCCUGGUUGUUACAUGAGGAUCACCCAUGUGCCGCGCGGUGCGCUGGGAGAAGGCUGGCGGCCGUU (puzzle: Same State 2)”, the “apparent KD of MS2 coat protein” value under setting [3] was found to be 71.8 nM.
